Results published in US7482146B1, “Phenylethanolamine-N-methyltransferase sequence variants” (Mayo Foundation for Medical Education and Research, priority 2003, dated 2009).
Like-named read-outs stand apart in the source and are kept apart here.

What was measured:
PNMT [1] = assay: PNMT enzyme activity assay of recombinant allozymes (14C-SAM methylation of octopamine); format: biochemical, human; details: recombinant allozyme in COS-1 cell homogenate; 65.9 μM octopamine, 24.22 μM 14C-SAM; corrected for transfection efficiency
From the text: Recombinant PNMT Expression Constructs and Allozyme Expression: PNMT cDNA sequences for the three non-synonymous cSNPs that were observed during the resequencing experiments were created using the QuickChange Site-Directed Mutagenesis kit (Stratagene, La Jolla, Calif.), using the wild type PNMT cDNA open reading frame (ORF) in the pUni/V5-His-TOPO (pUni) vector (Invitrogen) as template. Specifically, the full-length wild type ORF (GenBank accession number J03727) was amplified using human brain Marathon-Ready cDNA (Clontech) as template. The resultant PNMT cDNA was subcloned into pUni, a vector that is only 2.3 kilobases in length, so it is well suited for performing “circular PCR” during site-directed mutagenesis. […]
PNMT Enzyme Activity: PNMT activity was measured using a method based on that of Molnicoff et al. (1971) J. Pharmacol. Exp. Ther. 178(3):425-431. […] “Blank” samples included the same quantity of COS-115,000×g supernatant from cells that were transfected with “empty” pCR3.1 expression vector, making it possible to correct for endogenous activity. Reaction mixtures were incubated at 37° C. for 30 minutes, and reactions were stopped with 500 μl Borate Buffer (pH 10). ^14C-N-methyl-octopamine was extracted into toluene containing 20% isoamyl alcohol, and radioactivity of the extracted ^14C-N-methyl-octopamine was measured in a liquid scintillation counter. […]

PNMT [2] = assay: Substrate kinetics: apparent Km values of recombinant PNMT allozymes for octopamine and SAM; format: biochemical, human; details: recombinant allozyme from COS-1 cells
Experimental: Expression constructs for the wild type and variant PNMT sequences were transfected into COS-1 cells using the TransFast™ reagent (Promega), with a 1:1 charge ratio. pSV-β-Galactosidase (Promega) was co-transfected as an internal control to make it possible to correct for transfection efficiency. The COS-1 cells were harvested after 48 hours and were homogenized with a Polytron homogenizer (Brinkmann Instruments, Westbury, N.Y.) in 25 mM potassium phosphate buffer, pH 7.8 that contained 1 mM dithiothreitol (DTT) and 1 mM EDTA. Cell homogenates were centrifuged at 15,000×g for 15 minutes, and the resultant supernatant preparations were used for enzyme assays and substrate kinetic studies.
Estimating Apparent Km Values: To estimate apparent Km values of PNMT for the octopamine substrate, a series of octopamine and SAM concentrations were tested with the recombinant allozymes. Blanks for each substrate concentration were included by assaying COS-1 cell cytosol after transfection with empty […] vector. […] Apparent Km values were calculated using the method of Wilkinson with a computer program written by Cleland. Wilkinson supra; and Cleland supra.

B1: WT: recombinant wild type (reference) human PNMT polypeptide, SEQ ID NO:8, expressed in COS-1 cells (protein)
chain: MSGADRSPNAGAAPDSAPGQAAVASAYQRFEPRAYLRNNYAPPRGDLCNPNGVGPWKLRCLAQTFATGEVSGRTLIDIGSGPTVYQLLSACSHFEDITMTDFLEVNRQELGRWLQEEPGAFNWSMYSQHACLIEGKGECWQDKERQLRARVKRVLPIDVHQPQPLGAGSPAPLPADALVSAFCLEAVSPDLASFQRALDHITTLLRPGGHLLLIGALEESWYLAGEARLTVVPVSEEEVREALVRSGYKVRDLRTYIMPAHLQTGVDDVKGVFFAWAQKVGL
modifications: Homo sapien
% WT Enzyme activity (PNMT [1]): 100 % WT
Km (PNMT [2]; substrate SAM, read-out: Apparent Km (SAM)): 6.6 µM
Km (PNMT [2]; substrate octopamine, listed as WT PNMT protein, read-out: Apparent Km (octopamine)): 13.6 µM
Km (PNMT [2]; substrate octopamine, read-out: Apparent Km (octopamine)): 23.5 ± 3.1 µM
